Experimental data: patent publication US20260209318A1 (NATIONAL UNIVERSITY OF SINGAPORE, published 2026)

B1: SS6V11-E7 (antibody, V domains shown)
VH: QVQLQESGPGLVKPSETLSLTCTVSGGFIGPHYWSWVRQPPGKGLEWIGYIYISGSTNYNPSLKSRLTISVDMSKSQFSLTLSSATAADTAVYYCARGGGYLETGPFEYWGQGTLVTVSS
VL: DIVMTQSPLSLPVTPGEPASISCRSSQSLLQNNGYNYLAWYLQKPGQSPQLLIYLSSTRASGVPDRFSGSGSGTDFTLKISRVEAEDVGVYYCMQSLQIPGTFGQGTRLEIK
B2: LyCov-1404 (bebtelovimab) (antibody, V domains shown)
VH: QITLKESGPTLVKPTQTLTLTCTFSGFSLSISGVGVGWLRQPPGKALEWLALIYWDDDKRYSPSLKSRLTISKDTSKNQVVLKMTNIDPVDTATYYCAHHSISTIFDHWGQGTLVTVSS
VL: QSALTQPASVSGSPGQSITISCTATSSDVGDYNYVSWYQQHPGKAPKLMIFEVSDRPSGISNRFSGSKSGNTASLTISGLQAEDEADYYCSSYTTSSAVFGGGTKLTVL
B3: Ab2 (H12.2) (antibody, V domains shown)
VH: EFQLVESGGRLVRPGGSLRLSCVASEIIVSRNYMSWIRQAPGKGLEWVSILYAGGTTYYADSVKGRFTISRDNSKNTLYLQLNSLRVEDTAIYYCVRPIVGGRGGMDVWGQGTTVTVSS
VL: DIQMTQSPSSLSASVGDRVTITCQASQDINKYLNWYQQKPGKAPKLLIYDASNLEPGVPSRFSGSGSGTDFVFTITSLQPEDIATYYCHYYDDVPYTFGQGTQLEIK

Tests used:
[1] = molecular target: SARS-CoV-2 B.1.1.529.1 (BA.1) RBD (SARS-CoV-2 B.1.1.529.1 (BA.1), UniProt P0DTC2 319-541); assay: multiplex sVNT, RBD-coated beads, PE-hACE2 as competitor
[2] = molecular target: SARS-CoV-2 XBB.1 RBD (SARS-CoV-2 XBB.1, UniProt P0DTC2 319-541); assay: as above
[3] = molecular target: SARS-CoV-2 B.1.351 (beta) RBD (SARS-CoV-2 B.1.351 (beta), UniProt P0DTC2 319-541); assay: as above
[4] = molecular target: SARS-CoV-2 B.1.1.529.5 (BA.5) RBD (SARS-CoV-2 B.1.1.529.5 (BA.5), UniProt P0DTC2 319-541); assay: as above
[5] = molecular target: SARS-CoV-2 B.1.617.2 (delta) RBD (SARS-CoV-2 B.1.617.2 (delta), UniProt P0DTC2 319-541); assay: as above
[6] = molecular target: T1, BQ.1.1 spike protein (SARS-CoV-2 variant BQ.1.1, UniProt P0DTC2 14-1273); assay: pVNT (FIG. 1E, 1F, 2A, 3 cited); no direct binding assay described
[7] = molecular target: T1, BQ.1.1 spike protein; assay: cell-based or functional assay
[8] = molecular target: XBB.1 spike protein (SARS-CoV-2 variant XBB.1, UniProt P0DTC2 14-1273); assay: cell-based or functional assay

Row | Binder | binding result [1] | binding result [2] | binding result [3] | binding result [4] | binding result [5] | binding result [6] | IC50 (pVNT) [7] | concentration required to effectively neutralize (pVNT) [7] | concentration required to effectively neutralize (pVNT) [8] | times less than the concentration of E7 [8]
1 | B1 | binds | binds | binds | binds | binds |  |  |  |  | 
2 | B2 |  |  |  |  |  | no binding |  |  |  | 
3 | B3 |  | binds |  |  |  |  | ≤ 300 ng/ml | 16.6 ng/ml | 8.5 ng/ml | ~40 times
